Test results as given in paper PMC12803514, “The RNA-binding protein HuR modulates the expression of the disease-linked CCL2 rs1024611G-rs13900T haplotype”.

Biological target: HuR (ELAVL1 human recombinant protein) (Homo sapiens, UniProt Q15717 1-326)
Test: EMSA; HuR 0-150 µM as printed (25-200 µM in Methods); 20 mM HEPES pH 7.6, 3 mM MgCl2, 40 mM KCl, 5% glycerol, 2 mM DTT, 20 µg yeast tRNA, 20 U RNasin, 20 µL, on ice 10 min (plus 15 min with antibody); 5% native PAGE, 0.5x TBE
Details: protein: commercial

Chain of HuR (ELAVL1 human recombinant protein) (Q15717 whole entry): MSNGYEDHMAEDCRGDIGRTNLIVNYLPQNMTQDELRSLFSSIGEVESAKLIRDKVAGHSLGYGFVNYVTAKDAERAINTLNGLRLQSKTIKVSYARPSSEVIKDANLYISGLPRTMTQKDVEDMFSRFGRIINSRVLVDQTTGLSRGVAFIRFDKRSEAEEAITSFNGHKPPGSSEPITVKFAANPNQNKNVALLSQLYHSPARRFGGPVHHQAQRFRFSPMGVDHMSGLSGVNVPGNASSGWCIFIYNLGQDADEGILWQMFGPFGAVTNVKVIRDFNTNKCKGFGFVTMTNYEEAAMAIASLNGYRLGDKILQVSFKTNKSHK

Binder: CUUUCCCCAGACACCUUGUUUUAUUU (ssRNA) [rs13900T oligoribonucleotide]
- binding result: binds
